Results taken from CN115873113A (SHANGHAI INST MATERIA MEDICA CAS, dated 2023).

Tests used:
CaSR (细胞内钙流实验中的受体) = target: T1, CaSR (细胞内钙流实验中的受体) (human, UniProt P41180 20-1078); test: cell-based or functional assay
T1 sequence (looked up): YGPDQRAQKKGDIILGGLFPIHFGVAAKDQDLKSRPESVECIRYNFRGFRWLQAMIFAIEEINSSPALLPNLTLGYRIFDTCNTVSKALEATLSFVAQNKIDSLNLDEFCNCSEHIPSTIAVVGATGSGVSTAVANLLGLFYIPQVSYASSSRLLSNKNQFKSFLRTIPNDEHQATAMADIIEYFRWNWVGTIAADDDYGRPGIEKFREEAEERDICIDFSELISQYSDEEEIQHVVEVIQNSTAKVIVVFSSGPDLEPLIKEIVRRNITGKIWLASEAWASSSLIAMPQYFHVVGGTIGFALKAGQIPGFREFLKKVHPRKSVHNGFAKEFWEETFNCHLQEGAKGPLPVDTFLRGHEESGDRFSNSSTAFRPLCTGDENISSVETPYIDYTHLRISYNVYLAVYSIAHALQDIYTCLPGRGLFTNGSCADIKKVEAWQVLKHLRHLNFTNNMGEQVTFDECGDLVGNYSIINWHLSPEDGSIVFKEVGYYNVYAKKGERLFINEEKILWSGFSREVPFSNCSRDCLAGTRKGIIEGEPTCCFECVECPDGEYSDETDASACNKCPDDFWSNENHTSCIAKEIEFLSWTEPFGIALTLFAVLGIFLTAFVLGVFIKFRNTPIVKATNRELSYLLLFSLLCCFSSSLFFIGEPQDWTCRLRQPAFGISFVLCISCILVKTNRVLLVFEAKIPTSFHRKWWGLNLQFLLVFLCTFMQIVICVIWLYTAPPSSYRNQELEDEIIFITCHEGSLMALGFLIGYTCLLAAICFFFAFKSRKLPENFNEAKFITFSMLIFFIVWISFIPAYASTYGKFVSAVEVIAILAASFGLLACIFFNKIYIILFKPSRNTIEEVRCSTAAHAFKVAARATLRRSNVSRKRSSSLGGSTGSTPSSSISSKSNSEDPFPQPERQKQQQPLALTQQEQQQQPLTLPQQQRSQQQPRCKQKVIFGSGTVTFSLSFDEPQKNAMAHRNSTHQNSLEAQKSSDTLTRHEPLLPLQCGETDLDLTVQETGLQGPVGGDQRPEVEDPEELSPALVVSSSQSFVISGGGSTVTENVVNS

[1] = target: T2, Biotin-CaSR蛋白 (人体细胞外钙敏感受体, Human extracellular calcium-sensing receptor) (human, UniProt P41180 20-870, limits assumed, biotinylated (Biotin-CaSR); site not stated); test: BLI (Octet-Red96), Biotin-CaSR on streptavidin biosensor, nanobody in solution
T2 construct: Purified, detergent-solubilised CaSR; It was biotinylated and captured on NeutrAvidin plates for ELISA or on streptavidin biosensors for Octet
T2 sequence (looked up): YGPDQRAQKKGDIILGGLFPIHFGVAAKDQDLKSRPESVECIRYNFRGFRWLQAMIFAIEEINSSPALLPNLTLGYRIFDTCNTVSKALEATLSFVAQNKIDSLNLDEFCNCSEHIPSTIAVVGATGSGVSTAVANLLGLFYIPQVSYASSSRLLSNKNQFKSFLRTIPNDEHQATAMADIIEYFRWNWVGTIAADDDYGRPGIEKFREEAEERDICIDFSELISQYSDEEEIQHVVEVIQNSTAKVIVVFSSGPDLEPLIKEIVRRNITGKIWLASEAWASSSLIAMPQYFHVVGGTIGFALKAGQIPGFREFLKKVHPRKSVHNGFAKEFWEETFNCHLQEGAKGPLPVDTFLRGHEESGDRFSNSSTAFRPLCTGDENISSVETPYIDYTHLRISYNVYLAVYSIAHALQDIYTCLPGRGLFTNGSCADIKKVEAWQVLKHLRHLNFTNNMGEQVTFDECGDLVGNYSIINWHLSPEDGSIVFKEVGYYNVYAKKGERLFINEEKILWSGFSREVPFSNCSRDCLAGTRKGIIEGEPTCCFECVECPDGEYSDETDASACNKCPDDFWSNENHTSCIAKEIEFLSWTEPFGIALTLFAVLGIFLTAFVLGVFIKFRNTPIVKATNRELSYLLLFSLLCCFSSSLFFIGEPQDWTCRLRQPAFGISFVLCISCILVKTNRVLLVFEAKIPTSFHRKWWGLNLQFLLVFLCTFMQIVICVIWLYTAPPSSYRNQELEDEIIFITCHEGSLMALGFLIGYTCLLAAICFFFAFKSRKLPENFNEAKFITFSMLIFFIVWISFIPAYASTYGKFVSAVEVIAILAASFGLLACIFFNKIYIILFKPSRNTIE

[2] = target: T2, Biotin-CaSR蛋白 (人体细胞外钙敏感受体, Human …); test: ELISA, Biotin-CaSR on NeutrAvidin plate, nanobody titrated 1e-11 to 1e-6 mol/l, anti-HA detection

B1: 纳米抗体2D11 (VHH)
VHH: QVQLQESGGGSVQAGGSLRLSCAASGFPISTYDMGWFRQAPGKEREGVVGITDSFSIKYEDSVKGRFTISRDNAKNALYLQMNSLKPEDTGMYYCAAGDARWSLLLRAEQYNYWGQGTQVTVSS
notes: Camel VHH expressed in E. coli and purified on a nickel column; It was detected through an HA tag; also called 抗体株2D11
Q: How did the “钙流 IC50 (细胞外钙离子浓度1.2mM)” value (CaSR (细胞内钙流实验中的受体)) turn out when B1 was run?
A: 41 nM

Q: What about the Kd [1] of the same binder?
A: 0.24 nM

Q: And the EC50 [2]?
A: 1.9

B2: 纳米抗体NB32 (VHH)
VHH: QVQLQESGGGSVQAGGSLTLSCAASEYKHRYSTYSMGWFRQAPGKEREGVAAIYSDGGTRYADSVKGRFTISKDNAKSTLYLLMNSLKPEDTAMYYCAASQTFRGWYPYEYNYWGQGTQVTVSS
notes: Camel VHH expressed in E. coli and purified on a nickel column; It was detected through an HA tag; also called 抗体株NB32
Q: Which “钙流 IC50 (细胞外钙离子浓度1.2mM)” value (CaSR (细胞内钙流实验中的受体)) does the source give for B2 here?
A: 301 nM

Q: What about the Kd [1] of the same binder?
A: 3.2 nM

Q: And the EC50 [2]?
A: 3

B3: 纳米抗体1C12 (VHH)
VHH: QVQLQESGGGSVQAGGSLRLSCTASRYTYNSPLYMAWFRQAPGKEREGVAHIDSDGSITYTDSVKGRFTISRDNAKTTLYLQMNNLNPEDTAMYYCAADPLHRWSHRLEAIGYRYWGQGTQVTVSS
notes: Camel VHH expressed in E. coli and purified on a nickel column; also called 抗体株1C12
Q: What does the source list for B3?
A: 钙流 IC50 (细胞外钙离子浓度1.2mM) (CaSR (细胞内钙流实验中的受体)): 107 nM; Kd [1]: 0.9 nM; EC50 [2]: 2.1

B4: 纳米抗体2D4 (VHH)
VHH: LQESGGGSVQIGGSLRLSCAASGYTYMRYSSFCMGWFRQAPGKEREGVAAIDSGRRTTHADSVKGRFTISRDNAKNTLYLQMNSLKPEDTAMYYCAARDVGYCGGYWARRDFAYWGQGTQVTVSS
notes: Camel VHH expressed in E. coli and purified on a nickel column; It was detected through an HA tag; also called 抗体株2D4
Q: What does the source list for B4?
A: 钙流 IC50 (细胞外钙离子浓度1.2mM) (CaSR (细胞内钙流实验中的受体)): 65 nM; Kd [1]: 0.46 nM; EC50 [2]: 0.9

B5: 纳米抗体NB88 (VHH)
VHH: QVQLQESGGGSVQAGESLRLSCAASRYGYSRNWMGWFRQPPGKEREGVAVIYTGGSKTAYADAVKGRFIISLDNANNTVYLQMNSLKPEDTAMYYCAAGLVAYGRRWSPEAYKYWGQGTQVTVSS
notes: Camel VHH expressed in E. coli and purified on a nickel column; It was detected through an HA tag; also called 抗体株NB88
Q: What does the source list for B5?
A: 钙流 IC50 (细胞外钙离子浓度1.2mM) (CaSR (细胞内钙流实验中的受体)): 101 nM; Kd [1]: 3.9 nM; EC50 [2]: 1
